Test results as given in US11015206B2, “Compositions and methods comprising sequences having hydroxyphenylpyruvate dioxygenase (HPPD) activity” (PIONEER HI-BRED INTERNATIONAL, INC., priority 2014, dated 2021).

What was measured:
Format in all cases: biochemical, Z. mays
[1] = system: 4-hydroxyphenylpyruvate dioxygenase (HPPD); assay: ON rate ratio: HPPD reaction rate with vs without inhibitor in the 70 to 90 second interval; conditions: Table 7; tembotrione; combinatorial variants
Procedure, shortened: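 Indicator of inhibitor on-rate: reaction velocity in the 70 to 90 second window with 4 μM inhibitor divided by that without. Reactions contained 100 μM HPP and 60 or 120 nM HPPD; slower binding gives a larger ratio.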

[2] = system: 4-hydroxyphenylpyruvate dioxygenase (HPPD); assay: Estimate of kcat from initial rate at saturating hydroxyphenylpyruvate without inhibitor (ON rate ratio assay)
Procedure, shortened: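 kcat was estimated from the initial reaction rate with known enzyme level (60 or 120 nM HPPD). Hydroxyphenylpyruvate was at a saturating 100 μM, with no inhibitor present.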

[3] = system: 4-hydroxyphenylpyruvate dioxygenase (HPPD); assay: Insensitivity parameter (ON × OFF) and trait fitness (ON × OFF × kcat/KM or × kcat); design: key to ON × OFF / Insensitivity, mesotrione, ON × OFF / Insensitivity, tembotrione, ON × OFF / Insensitivity, topramezone, ON × OFF / Insensitivity, sulcotrione, ON × OFF / Insensitivity, isoxaflutole (DKN), ON × OFF: insensitivity = ON rate ratio × OFF rate ratio (surrogate for KD)
Procedure, shortened: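 Trait fitness combines catalysis and insensitivity as kcat/KM × ON rate ratio × OFF rate ratio. The insensitivity parameter is the product of ON and OFF rate ratios, used in place of KD because the ON rate ratio is inverse.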

[4] = system: 4-hydroxyphenylpyruvate dioxygenase (HPPD); assay: OFF rate ratio: release of inhibitor from pre-formed enzyme-inhibitor complex; conditions: Table 7; tembotrione; combinatorial variants
Procedure, shortened: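 Inhibitor release from pre-formed complex (enzyme 7.2 μM, inhibitor 8 μM, 1 h RT) tracked as accelerating HPPD activity at 320 nm over 12 min, coupled via 50 nM HGD with 100 μM HPP at pH 7. OFF rate ratio: steady-state velocity relative to uninhibited initial velocity.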

[5] = Table 7, combinatorial variants
[6] = Table 7, tembotrione, combinatorial variants

Molecule | ON rate ratio [1] | ON × OFF ([3]; Megatable 3, shuffled variants) | ON × OFF [3, 6] | OFF rate ratio [4] | kcat ([2]; Megatable 3, shuffled variants) | kcat [2, 5] | ON × OFF × kcat ([3]; Megatable 3, shuffled variants) | ON × OFF × kcat [3, 6]
P056028-E-07 (protein, Zea mays variant form created by artificial means.) MGPTPTATAAGAAVAAASAAEQAAFRLVGHRNFVRFNPRSDRFQTLAFHHVELWCADAASAAGRFSFALGVPLAARSDLSTGNSAHASLLLRSGSLSLLFTAPYAHGADAATAALPSFSAAAARRFAADHGLAVRAVALRVADAEDAFRASVAAGARPAFGPVDLGRGFRLAEVELYGDVVLRYVSYPDGAAGEPFLPGFEGVASPGAADLGLSRFDHIVGNVPELAPAAAYMAGFTGFHEFAEFTTEDVGTTESGLNSMALANNSENVLLPLNEPVHGTKRRSQIQTFLDHHGGPGVQHIALASDDVLRTLREMRARSAMGGFEFLPPPLSDYYDGVRRCAGDVLTEAQINECQELGVMVDRDDEGVLLQIFTKPVGDRPTFFLEIIQRIGCMEKDEKGQEYQKGGCGGFGKGNFQQLFKSIEDYEKSLEAKRAAAAATAQGS | 0.585 | 0.153 | 0.153 | 0.262 | 0.343 s⁻¹ | 0.343 s⁻¹ | 3.08 | 3.08
P056028-E-08 (protein, Zea mays variant form created by artificial means.) MGPTPTATAAGAAVAAASAAEQAAFRLVGHRNFVRFNPRSDRFQTLAFHHVELWCADAASAAGRFSFALGVPLAARSDLSTGNSAHASLLLRSGSLSLLFTAPYAHGADAATAALPSFSAAAARRFAADHGLAVRAVALRVADAEDAFRASVAAGARPAFGPVDLGRGFRLAEVELYGDVVLRYVSYPDGAAGEPFLPGFEGVASPGAADYGLSRFDHIVGNVPELAPAAAYMAGFTGFHEFAEFTTEDVGTTESGLNSMALANNSENVLLPLNEPVHGTKRRSQIQTFLDHHGGPGVQHIALASDDVLRTLREMRARSAMGGFEFLPPPLSDYYDGVRRCAGDVLTEAQINECQRLGVMVDRDDEGVLLQIFTKPVGDRPTFFLEIIQRIGCMEKDEKGQEYQKGGCGGFGKGNFGQLFKSIEDYEKSLEAKQAAAAATAQGS | 0.685 | 0.281 | 0.281 | 0.410 | 0.21 s⁻¹ | 0.21 s⁻¹ | 3.55 | 3.55
P056028-F-03 (protein, Zea mays variant form created by artificial means.) MGPTPTATAAGAAVAAASAAEQAAFRLVGHRNFVRFNPRSDRFQTLAFHHVELWCADAASAAGRFSFALGVPLAARSDLSTGNSAHASLLLRSGSLSLLFTAPYAHGADAATAALPSFSAAAARRFAADHGLAVRAVALRVADAEDAFRASVAAGARPAFGPVDLGRGFRLAEVELYGDVVLRYVSYPDGGAGEPFLPGFEGVASPGAADYGLSRFDHIVGNVPELAPAAAYMAGFTGFHEFAEFTTEDVGTTESGLNSMALANNSENVLLPLNEPVHGTKRRSQIQTFLDHHGGPGVQHIALASDDVLRTLREMRARSAMGGFEFLPPPLSDYYDGVRRCAGDVLTEAQINECQELGVMVDRDDEGVLLQIFTKPVGDRPTFFIEIIQRIGCTEKDEKGQEYQKGGCGGFGKGNFSQLFKSIEDYEKSLEAKQAAAAATAQGS | 0.738 | 0.363 | 0.363 | 0.491 | 0.217 s⁻¹ | 0.217 s⁻¹ | 4.73 | 4.73
P056028-E-09 (protein, Zea mays variant form created by artificial means.) MGPTPTATAAGAAVAAASAAEQAAFRLVGHRNFVRFNPRSDRFQTLAFHHVELWCADAASAAGRFSFALGVPLAARSDLSTGNSAHASLLLRSGSLSLLFTAPYAHGADAATAALPSFSAAAARRFAADHGLAVRAVALRVADAEDAFRASVAAGARPAFGPVDLGRGFRLAEVELYGDVVLRYVSYPDGGAGEPFLPGFEGVASQGAADYGLSRFDHIVGNVPELAPAAAYMAGFTGFHEFAEFTTEDVGTTESGLNSMALANNSENVLLPLNEPVHGTKRRSQIQTFLDHHGGPGVQHIALASDDVLRTLREMRARSAMGGFEFLPPPLSDYYDGVRKCAGDVLTEAQINECQELGVMVDRDDEGVLLQIFTKPVGDRPTFFLEIIQRIGCMEKDEKGQEYQKGGCGGFGKGNFGQLFKSIEDYEKSLEAKQAAAAATAQGS | 0.676 | 0.208 | 0.208 | 0.308 | 0.248 s⁻¹ | 0.248 s⁻¹ | 3.10 | 3.10
P056028-F-04 (protein, Zea mays variant form created by artificial means.) MGPTPTATAAGAAVAAASAAEQAAFRLVGHRNFVRFNPRSDRFQTLAFHHVELWCADAASAAGRFSFALGVPLAARSDLSTGNSAHASLLLRSGSLSLLFTAPYAHGADAATAALPSFSAAAARRFAADHGLAVRAVALRVADAEDAFRASVAAGARPAFGPVDLGRGFRLAEVELYGDVVLRYVSYPDGAAGEPFLPGFEGVASPGAADYGLSRFDHIVGNVPELAPAAAYMAGFTGFHEFAEFTTEDVGTTESGLNSMALANNSENVLLPLNEPVHGTKRRSQIQTFLDHHGGPGVQHIALASDDVLRTLREMRARSAMGGFEFLPPPLSDYYDGVRRCAGDVLTEAQINECQELGVMVDRDDEGVLLQIFTKPVGDRPTFFLELIQRIGCMEKDEKGQEYQKGGCGGFGKGNFGQLFKSIEDYEKSLEAKQAAAAATAQGS | 0.660 | 0.161 | 0.161 | 0.245 | 0.278 s⁻¹ | 0.278 s⁻¹ | 2.70 | 2.70

The next lines start with results.

ON rate ratio [1] | ON × OFF ([3]; Megatable 3, shuffled variants) | ON × OFF [3, 6] | OFF rate ratio [4] | Molecule | kcat ([2]; Megatable 3, shuffled variants) | kcat [2, 5] | ON × OFF × kcat ([3]; Megatable 3, shuffled variants) | ON × OFF × kcat [3, 6]
0.726 | 0.211 | 0.211 | 0.291 | P056028-F-10 (protein, Zea mays variant form created by artificial means.) MGPTPTATAAGAAVAAASAAEQAAFRLVGHRNFVRFNPRSDRFQTLAFHHVELWCADAASAAGRFSFALGVPLAARSDLSTGNSAHASLLLRSGSLSLLFTAPYAHGADAATAALPSFSAAAARRFAADHGLAVRAVALRVADAEDAFRASVAAGARPAFGPVDLGRGFRLAEVELYGDVVLRYVSYPDGGAGEPFLPGFEGVASPGAADYGLNRFDHIVGNVPELAPAAAYMAGFTGFHEFAEFTTEDVGTTESGLNSMALANNSENVLLPLNEPVHGTKRRSQIQTFLDHHGGPGVQHIALASDDVLRTLREMRARSAMGGFEFLPPPLSDYYDGVRKCAGDVLTEAQINECQELGVMVDRDDEGVLLQIFTKPVGDRPTFFLEIIQRIGCMEKDEKGQEYQKGGCGGFGKGNFGQLFKSIEDYEKSLEAKQAAAAATAQGS | 0.228 s⁻¹ | 0.228 s⁻¹ | 2.89 | 2.89
0.706 | 0.228 | 0.228 | 0.322 | P056028-F-11 (protein, Zea mays variant form created by artificial means.) MGPTPTATAAGAAVAAASAAEQAAFRLVGHRNFVRFNPRSDRFQTLAFHHVELWCADAASAAGRFSFALGVPLAARSDLSTGNSAHASLLLRSGSLSLLFTAPYAHGADAATAALPSFSAAAARRFAADHGLAVRAVALRVADAEDAFRASVAAGARPAFGPVDLGRGFRLAEVELYGDVVLRYVSYPDGGAGEPFLPGFEGVASPGAADYGLSRFDHIVGNVPELAPAAAYMAGFTGFHEFAEFTTEDVGTTESGLNSMALANDSENVLLPLNEPVHGTKRRSQIQTFLDHHGGPGVQHIALASDDVLRTLREMRARSAMGGFEFLPPPLSDYYDGVRRCAGDVLTEAQINECQELGVMVDRDDEGVLLQIFTKPVGDRPTFFLEIIQRIGCMEKDEKGQEYQKGGCGGFGKGNFGQLFKSIEDYEKSLEAKQAAAAATAQGS | 0.368 s⁻¹ | 0.368 s⁻¹ | 5.04 | 5.04
0.213 | 0.007 | 0.007 | 0.033 | Mz wt (protein, Zea mays) MGPTPTAAAAGAAVAAASAAEQAAFRLVGHRNFVRFNPRSDRFHTLAFHHVELWCADAASAAGRFSFGLGAPLAARSDLSTGNSAHASLLLRSGSLSFLFTAPYAHGADAATAALPSFSAAAARRFAADHGLAVRAVALRVADAEDAFRASVAAGARPAFGPVDLGRGFRLAEVELYGDVVLRYVSYPDGAAGEPFLPGFEGVASPGAADYGLSRFDHIVGNVPELAPAAAYFAGFTGFHEFAEFTTEDVGTAESGLNSMVLANNSENVLLPLNEPVHGTKRRSQIQTFLDHHGGPGVQHMALASDDVLRTLREMQARSAMGGFEFMAPPTSDYYDGVRRRAGDVLTEAQIKECQELGVLVDRDDQGVLLQIFTKPVGDRPTLFLEIIQRIGCMEKDEKGQEYQKGGCGGFGKGNFSQLFKSIEDYEKSLEAKQAAAAAAAQGS | 1.62 s⁻¹ | 1.62 s⁻¹ | 0.68 | 0.68
